These results are taken from PMC7920261 (Science (New York, N.y.), 2020).

The target in assay [1] is T1, SARS-CoV-2 spike receptor-binding domain (RBD) (SARS-CoV-2, UniProt P0DTC2). Kind of assay: BLI. Particulars: both partners purified.
Assay [2] deals with T1, SARS-CoV-2 spike receptor-binding …. Kind of assay: ELISA. Particulars: both partners purified.

B1: CTC-445.2t (designed binder)
chain: SAEIDLGKGDFREIRASEDAREAAEALAEAARAMKEALEIIREIAEKLRDSSRASEAAKRIAKAIRKAADAIAEAAKIAARAAKDGDAARNAENAARKAKEFAEEQAKLADMYAELAKNGDKSSVLEQLKTFADKAFHEMEDRFYQAALAVFEAAEAAAGGGGSGGSGSGGSGGGSSAEIDLGKGDFREIRASEDAREAAEALAEAARAMKEALEIIREIAEKLRDSSRASEAAKRIAKAIRKAADAIAEAAKIAARAAKDGDAARNAENAARKAKEFAEEQAKLADMYAELAKNGDKSSVLEQLKTFADKAFHEMEDRFYQAALAVFEAAEAAAGGGGSGGSGSGGSGGGSSAEIDLGKGDFREIRASEDAREAAEALAEAARAMKEALEIIREIAEKLRDSSRASEAAKRIAKAIRKAADAIAEAAKIAARAAKDGDAARNAENAARKAKEFAEEQAKLADMYAELAKNGDKSSVLEQLKTFADKAFHEMEDRFYQAALAVFEAAEAAAG
In assay [1], B1 displayed a Kd of around 0.27 nM. The molecule further gave an IC50 in assay [2] of around 0.01 nM.

What is called Kd is a measure of binding affinity in units of concentration. Read a high Kd as lower affinity. Usually IC50 stands for the concentration needed to halve the response being measured.
